Results on two molecules are retold here after publication PMC3265607 (Journal of Molecular Biology, 2011).

The target in assay [1] is ceNXT1, His6, pET28b construct for pull-down assays (Caenorhabditis elegans) (UniProt Q9U757). Description: SEC. Background: SEC sorts molecules by how far they enter the pores of the column.
Assay [2] concerns the target T1, ceNXT1 (residues 2-137), His6, pETDuet-1 construct for structural studies (Caenorhabditis elegans, UniProt Q9U757 2-137, SeMet-labeled (selenomethionine)).
T1 sequence (looked up): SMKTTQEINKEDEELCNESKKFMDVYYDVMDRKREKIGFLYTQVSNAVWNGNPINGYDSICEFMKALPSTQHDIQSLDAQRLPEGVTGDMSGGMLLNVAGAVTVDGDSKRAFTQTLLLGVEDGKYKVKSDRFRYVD
Description: SEC.

For orientation: stoichiometry N means a count of units in the complex or per binding partner. In turn, “ceNXF1(NTF2) (from UniProt Q9XVS7 352-539) (domain or fragment)” registered a stoichiometry N in assay [1] of 1.

B1: ceNXF2(NTF2) (domain or fragment, Caenorhabditis elegans, UniProt Q9XVS8 202-405, looked up)
chain: FRNGYYGSDEVRTLVEEFIITYYKIYDGADGQQTRKQLLDAYDTNNSTFTHTVVCLWDPIKFVMYPDSESYRMYLRTSHNVLNQEYFAANRASRISHGAMDIVVALSRLPATIHLMDTFVVDVFLVSATLLGFTLHGTFRDGPSAIKPENTEEHDNYFTRTFMVAPRGEGKVAIVSDQLFISSMSKRRGDQYRMLVETATDIDQ
For B1, the “stoichiometry N” value in assay [2] worked out at 1.
